# US20110318339A1
# Assays:
# [1] = target: rHuman ErbB2/Fc Chimera, CF (Cat# 1129-ER) (human) (UniProt P04626); test: Multispot ECL; Fab […]
# [2] = target: rHuman HGF R/c-MET/Fc Chimera, CF (Cat# 358-MT/CF) (human) (UniProt P08581); test: Multispot ECL; Fab […]
# [3] = target: rHuman IGF-1 sR, (IGF-1 sR), CF (Cat# 391-GR) (human) (UniProt P08069); test: Multispot ECL; Fab […]
# [4] = target: rHuman ErbB2/Fc Chimera, CF (Cat# 1129-ER) (human) (UniProt P04626); test: Multispot ECL; Fab 0.096 µM
# [5] = target: rHuman HGF R/c-MET/Fc Chimera, CF (Cat# 358-MT/CF) (human) (UniProt P08581); test: Multispot ECL; Fab 0.096 µM
# [6] = target: rHuman IGF-1 sR, (IGF-1 sR), CF (Cat# 391-GR) (human) (UniProt P08069); test: Multispot ECL; Fab 0.096 µM
# [7] = target: rHuman ErbB2/Fc Chimera, CF (Cat# 1129-ER) (human) (UniProt P04626); test: Multispot ECL; Fab 0.0192 µM
# [8] = target: rHuman HGF R/c-MET/Fc Chimera, CF (Cat# 358-MT/CF) (human) (UniProt P08581); test: Multispot ECL; Fab 0.0192 µM
# [9] = target: rHuman IGF-1 sR, (IGF-1 sR), CF (Cat# 391-GR) (human) (UniProt P08069); test: Multispot ECL; Fab 0.0192 µM
# [10] = target: rHuman ErbB2/Fc Chimera, CF (Cat# 1129-ER) (human) (UniProt P04626); test: Multispot ECL; Fab 1.19 µM
# [11] = target: rHuman HGF R/c-MET/Fc Chimera, CF (Cat# 358-MT/CF) (human) (UniProt P08581); test: Multispot ECL; Fab 1.19 µM
# [12] = target: rHuman IGF-1 sR, (IGF-1 sR), CF (Cat# 391-GR) (human) (UniProt P08069); test: Multispot ECL; Fab 1.19 µM
# [13] = target: rHuman ErbB2/Fc Chimera, CF (Cat# 1129-ER) (human) (UniProt P04626); test: Multispot ECL; Fab 0.2975 µM
# [14] = target: rHuman HGF R/c-MET/Fc Chimera, CF (Cat# 358-MT/CF) (human) (UniProt P08581); test: Multispot ECL; Fab 0.2975 µM
# [15] = target: rHuman IGF-1 sR, (IGF-1 sR), CF (Cat# 391-GR) (human) (UniProt P08069); test: Multispot ECL; Fab 0.2975 µM
# [16] = target: rHuman ErbB2/Fc Chimera, CF (Cat# 1129-ER) (human) (UniProt P04626); test: Multispot ECL; Fab 0.01859 µM
# [17] = target: rHuman HGF R/c-MET/Fc Chimera, CF (Cat# 358-MT/CF) (human) (UniProt P08581); test: Multispot ECL; Fab 0.01859 µM
# [18] = target: rHuman IGF-1 sR, (IGF-1 sR), CF (Cat# 391-GR) (human) (UniProt P08069); test: Multispot ECL; Fab 0.01859 µM
# [19] = target: rHuman ErbB2/Fc Chimera, CF (Cat# 1129-ER) (human) (UniProt P04626); test: Multispot ECL; Fab 0.07438 µM
# [20] = target: rHuman HGF R/c-MET/Fc Chimera, CF (Cat# 358-MT/CF) (human) (UniProt P08581); test: Multispot ECL; Fab 0.07438 µM
# [21] = target: rHuman IGF-1 sR, (IGF-1 sR), CF (Cat# 391-GR) (human) (UniProt P08069); test: Multispot ECL; Fab 0.07438 µM
# [22] = target: rHuman CD44/Fc Chimera, CF (Cat# 3660-CD) (human) (UniProt P16070); test: Multispot ECL; Fab 70 nM
# [23] = target: rHuman ErbB2/Fc Chimera, CF (Cat# 1129-ER) (human) (UniProt P04626); test: Multispot ECL; Fab 70 nM
# [24] = target: rHuman IGF-1 sR, (IGF-1 sR), CF (Cat# 391-GR) (human) (UniProt P08069); test: Multispot ECL; Fab 70 nM
# [25] = target: rHuman Notch-1/Fc Chimera, CF (Cat# 3647-TK) (human) (UniProt P46531); test: Multispot ECL; Fab 70 nM
# [26] = target: rHuman P-Cadherin/Fc Chimera, CF (Cat# 861-PC) (human) (UniProt P22223); test: Multispot ECL; Fab 70 nM
# [27] = target: rHuman CD44/Fc Chimera, CF (Cat# 3660-CD) (human) (UniProt P16070); test: Multispot ECL; Fab 280 nM
# [28] = target: rHuman ErbB2/Fc Chimera, CF (Cat# 1129-ER) (human) (UniProt P04626); test: Multispot ECL; Fab 280 nM
# [29] = target: rHuman IGF-1 sR, (IGF-1 sR), CF (Cat# 391-GR) (human) (UniProt P08069); test: Multispot ECL; Fab 280 nM
# [30] = target: rHuman Notch-1/Fc Chimera, CF (Cat# 3647-TK) (human) (UniProt P46531); test: Multispot ECL; Fab 280 nM
# [31] = target: rHuman P-Cadherin/Fc Chimera, CF (Cat# 861-PC) (human) (UniProt P22223); test: Multispot ECL; Fab 280 nM
# [32] = target: rHuman CD44/Fc Chimera, CF (Cat# 3660-CD) (human) (UniProt P16070); test: Multispot ECL; Fab 17.5 nM
# [33] = target: rHuman ErbB2/Fc Chimera, CF (Cat# 1129-ER) (human) (UniProt P04626); test: Multispot ECL; Fab 17.5 nM
# [34] = target: rHuman IGF-1 sR, (IGF-1 sR), CF (Cat# 391-GR) (human) (UniProt P08069); test: Multispot ECL; Fab 17.5 nM
# [35] = target: rHuman Notch-1/Fc Chimera, CF (Cat# 3647-TK) (human) (UniProt P46531); test: Multispot ECL; Fab 17.5 nM
# [36] = target: rHuman P-Cadherin/Fc Chimera, CF (Cat# 861-PC) (human) (UniProt P22223); test: Multispot ECL; Fab 17.5 nM
# [37] = target: rHuman CD44/Fc Chimera, CF (Cat# 3660-CD) (human) (UniProt P16070); test: Multispot ECL; Fab 4.375 nM
# [38] = target: rHuman ErbB2/Fc Chimera, CF (Cat# 1129-ER) (human) (UniProt P04626); test: Multispot ECL; Fab 4.375 nM
# [39] = target: rHuman IGF-1 sR, (IGF-1 sR), CF (Cat# 391-GR) (human) (UniProt P08069); test: Multispot ECL; Fab 4.375 nM
# [40] = target: rHuman Notch-1/Fc Chimera, CF (Cat# 3647-TK) (human) (UniProt P46531); test: Multispot ECL; Fab 4.375 nM
# [41] = target: rHuman P-Cadherin/Fc Chimera, CF (Cat# 861-PC) (human) (UniProt P22223); test: Multispot ECL; Fab 4.375 nM
# [42] = target: rHuman EGF R/Fc Chimera, CF (Cat# 344-ER) (human) (UniProt P00533); test: Multispot ECL; Fab […]
# [43] = target: rHuman Erythropoietin R/Fc Chimera, CF (Cat# 963-ER) (human) (UniProt P19235); test: Multispot ECL; Fab […]
# Chain of rHuman Erythropoietin R/Fc Chimera, CF (Cat# 963-ER) (human) (P19235 25-250, change not shown): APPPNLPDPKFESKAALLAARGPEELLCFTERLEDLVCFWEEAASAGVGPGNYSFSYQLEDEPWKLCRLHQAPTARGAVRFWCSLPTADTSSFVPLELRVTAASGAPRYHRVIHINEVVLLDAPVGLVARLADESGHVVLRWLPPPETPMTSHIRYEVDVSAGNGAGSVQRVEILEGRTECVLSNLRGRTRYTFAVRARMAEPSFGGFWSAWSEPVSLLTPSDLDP
# [44] = target: rHuman Notch-1/Fc Chimera, CF (Cat# 3647-TK) (human) (UniProt P46531); test: Multispot ECL; Fab […]
# [45] = target: rHuman P-Cadherin/Fc Chimera, CF (Cat# 861-PC) (human) (UniProt P22223); test: Multispot ECL; Fab […]
# [46] = target: rHuman EGF R/Fc Chimera, CF (Cat# 344-ER) (human) (UniProt P00533); test: Multispot ECL; Fab 0.51 µM
# [47] = target: rHuman Erythropoietin R/Fc Chimera, CF (Cat# 963-ER) (human) (UniProt P19235); test: Multispot ECL; Fab 0.51 µM
# [48] = target: rHuman IGF-1 sR, (IGF-1 sR), CF (Cat# 391-GR) (human) (UniProt P08069); test: Multispot ECL; Fab 0.51 µM
# [49] = target: rHuman Notch-1/Fc Chimera, CF (Cat# 3647-TK) (human) (UniProt P46531); test: Multispot ECL; Fab 0.51 µM
# [50] = target: rHuman P-Cadherin/Fc Chimera, CF (Cat# 861-PC) (human) (UniProt P22223); test: Multispot ECL; Fab 0.51 µM
# [51] = target: rHuman EGF R/Fc Chimera, CF (Cat# 344-ER) (human) (UniProt P00533); test: Multispot ECL; Fab 0.1275 µM
# [52] = target: rHuman Erythropoietin R/Fc Chimera, CF (Cat# 963-ER) (human) (UniProt P19235); test: Multispot ECL; Fab 0.1275 µM
# [53] = target: rHuman IGF-1 sR, (IGF-1 sR), CF (Cat# 391-GR) (human) (UniProt P08069); test: Multispot ECL; Fab 0.1275 µM
# [54] = target: rHuman Notch-1/Fc Chimera, CF (Cat# 3647-TK) (human) (UniProt P46531); test: Multispot ECL; Fab 0.1275 µM
# [55] = target: rHuman P-Cadherin/Fc Chimera, CF (Cat# 861-PC) (human) (UniProt P22223); test: Multispot ECL; Fab 0.1275 µM
# [56] = target: rHuman EGF R/Fc Chimera, CF (Cat# 344-ER) (human) (UniProt P00533); test: Multispot ECL; Fab 0.03188 µM
# [57] = target: rHuman Erythropoietin R/Fc Chimera, CF (Cat# 963-ER) (human) (UniProt P19235); test: Multispot ECL; Fab 0.03188 µM
# [58] = target: rHuman IGF-1 sR, (IGF-1 sR), CF (Cat# 391-GR) (human) (UniProt P08069); test: Multispot ECL; Fab 0.03188 µM
# [59] = target: rHuman Notch-1/Fc Chimera, CF (Cat# 3647-TK) (human) (UniProt P46531); test: Multispot ECL; Fab 0.03188 µM
# [60] = target: rHuman P-Cadherin/Fc Chimera, CF (Cat# 861-PC) (human) (UniProt P22223); test: Multispot ECL; Fab 0.03188 µM
substance,measurement,setting,value
Fab VH1-46_IGHD6-13*01_IGHJ4*01 & A27_IGKJ1*01,ECL signal,[1],11300
same,ECL signal,[2],8000
same,ECL signal,[3],8930
same,ECL signal,[4],3360
same,ECL signal,[5],2330
same,ECL signal,[6],2450
same,ECL signal,[7],2310
same,ECL signal,[8],1580
same,ECL signal,[9],1830
Fab VH1-46_IGHD6-13*01_IGHJ4*01 & L2_IGKJ1*01,ECL signal,[10],38400
same,ECL signal,[11],45500
same,ECL signal,[12],35200
same,ECL signal,[13],15100
same,ECL signal,[14],17400
same,ECL signal,[15],17400
same,ECL signal,[16],5530
same,ECL signal,[17],4570
same,ECL signal,[18],3780
same,ECL signal,[19],7550
same,ECL signal,[20],6610
same,ECL signal,[21],5800
Fab VH1-46_IGHD2-15*01_IGHJ2*01 & L12_IGKJ1*01,ECL signal,[22],1370
same,ECL signal,[23],1360
same,ECL signal,[24],1320
same,ECL signal,[25],1490
same,ECL signal,[26],1820
same,ECL signal,[27],4070
same,ECL signal,[28],3950
same,ECL signal,[29],3530
same,ECL signal,[30],4380
same,ECL signal,[31],5400
same,ECL signal,[32],664
same,ECL signal,[33],541
same,ECL signal,[34],626
same,ECL signal,[35],680
same,ECL signal,[36],949
same,ECL signal,[37],424
same,ECL signal,[38],384
same,ECL signal,[39],369
same,ECL signal,[40],480
same,ECL signal,[41],469
Fab VH4-34_IGHD7-27*01_IGHJ4*01 & L5_IGKJ1*01,ECL signal,[42],530
same,ECL signal,[43],566
same,ECL signal,[3],564
same,ECL signal,[44],654
same,ECL signal,[45],502
same,ECL signal,[46],2360
same,ECL signal,[47],2620
same,ECL signal,[48],2240
same,ECL signal,[49],2770
same,ECL signal,[50],2390
same,ECL signal,[51],1060
same,ECL signal,[52],1070
same,ECL signal,[53],1040
same,ECL signal,[54],1500
same,ECL signal,[55],957
same,ECL signal,[56],694
same,ECL signal,[57],789
same,ECL signal,[58],765
same,ECL signal,[59],849
same,ECL signal,[60],775
